Values quoted from earlier work as cited in publication PMC3381941.
Like-named read-outs stand apart in the source and are kept apart here.

Experiments:
[1] = target: Mtf1 (Saccharomyces cerevisiae) (UniProt P14908); test: protein-protein crosslinking
[2] = target: Mtf1 (Saccharomyces cerevisiae) (UniProt P14908); test: protein-protein crosslinking; remark: listed apart in the source

Sequence of UniProt P14908 (P14908 2-341): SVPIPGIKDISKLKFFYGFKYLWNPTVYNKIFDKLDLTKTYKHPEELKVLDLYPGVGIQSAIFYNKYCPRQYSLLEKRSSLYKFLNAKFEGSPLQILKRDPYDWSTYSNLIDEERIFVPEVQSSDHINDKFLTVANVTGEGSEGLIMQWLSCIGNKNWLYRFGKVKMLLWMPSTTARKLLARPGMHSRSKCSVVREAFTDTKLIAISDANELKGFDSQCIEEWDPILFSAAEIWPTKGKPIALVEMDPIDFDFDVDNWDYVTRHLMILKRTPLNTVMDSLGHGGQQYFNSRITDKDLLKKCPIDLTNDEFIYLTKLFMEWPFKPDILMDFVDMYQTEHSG

- Kd [1]: 600 nM
- Kd [2]: 400 nM
Substance: Rpo41 (from UniProt P13433)
